Results reported in the DeepSol protein solubility set.

Experiment: soluble on expression in E. coli; label from the status in PepcDB or PDB records

Sequence	soluble on expression in E. coli
MWSEKHKSGKVNFVERYKHPYTGKWCRASVLMEKDTPRIRKEAQKYLDEKISEILTSLTTTDAYLLDVMNEWWEHHQKSLKSTSVRSLDFRIRELRNLIDPEVMIAKITTKYLQSIIDKIPGSYDKRKRARQLLKQTFDYAIALEYVSINPVISTQLAKPVKTIKDFEDVAQKFLEKDELKRLLDEMYRRKGSIKMAYLAEFMSLNGCRIGEALAIQPDNIKNDIIEIHGTLDYTSNGYRNAIKTTPKTNSSWRETLITKREKEIIQDILKINALEKNTNPNYKDMGYIFISRNGVPIQDNALNTSIRAANKRLEKPIQKELTSHIFRHTLVSRLAENKVPLKTIMDRVGHADSKTTQQIYTHVTKSMKNEVVDILNRL	not soluble
MGHHHHHHSHMVLLHVKRGDESQFLLQAPGSTELEELTVQVARVYNGRLKVQRLCSEMEELAEHGIFLPPNMQGLTDDQIEELKLKDEWGEKCVPSGGAVFKKDDIGRRNGQAPNEKMKQVLKKTIEEAKAIISKKQVEAGVCVTMEMVKDALDQLRGAVMIVYPMGLPPYDPIRMEFENKEDLSGTQAGLNVIKEAEAQLWWAAKELRRTKKLSDYVGKNEKTKIIAKIQQRGQGAPAREPIISSEEQKQLMLYYHRRQEELKRLEENDDDAYLNSPWADNTALKRHFHGVKDIKWRPR	not soluble
MSLATWSAERFGFGAALGDHDRARRAAVGEAVERYCGNAVPDALEIACYDDLARAGRPALDPATLALYSDRQYRARGFPFRPFTRQTPVAWVPGRDLYAGGPVLVPASMAYLNYFRGAHADEVATHAMLYAGIATGENREHAERFALEELFERDANTIWWASGAAGWAVADAAELLDRYDIAHGEGTGRTIRLFQVPSQFPVPVLAAFLEEPGRGLIAYGTACRADPREAATKALVEAFAMLELTAELADGDSAHWRAVARGEIPPHTYLPYRADRRYADDIRPDFRDLVDLPAVAQLYLDPRMQGRPLDRLRDDTRTTRLADIPRADGDANGGTAHRRYLDMLATQGLSAVSVDVTTPDVRAAGLTVVRVIVPGLYGNPPAAFPFLGGERLYDVPAQLGLAAGKITEDALYPYPIPHEGHHHHHH	not soluble
LSLLLEVSGNPKAGNVDREHDFDDLKFEHFLASAAGAFPAFLEVAEKRIIGEGVLRAVKESMRWHRAENVHFGAFLLLVPLISSWDAGGMVDIAEAARNRLRRTDFRDSLSVLEAFRLSNARVVEAGELNLKDRKTEEEIAQKKINLYEWMKMAPEENLIARELVDGFKISIEGAKFLLSFGNSGKAVVELYYHLLSKFPDPLVIAKMGREYAEKITEWAEKARTEEERKELDEKLLKDGANPGTIADLTASSI	not soluble
MGFFSGQFSNVVEWEEFREDMIFWKWHNREIKRGSKLIIRPGQDAIFLFNGRIEGIFKDEGDYDIESQIIPFLSTLQGFKFGFNSGMRAEVLFVNTKEFTAKWGTKSAINIPTPQLPGGIPIRANGTFTFKVNDYVKLIDRIAGVKDSFLVEDVRLRIMALLDQLMMKWIVQEGRDMFNLQSNSFAIADGLKTDLDMQIYDMGITVSQLTIMSFTYPEEIQQMIAKAASHTMIGDMGRYQQVSVLDGIAGGKLEHHHHHH	not soluble
MSLRPTPAPSFSGVTVDGKPFSSASLKGKAYIVNFFATWCPPCRSEIPDMVQVQKTWASRGFTFVGIAVNEQLPNVKNYMKTQGIIYPVMMATPELIRAFNGYIDGGITGIPTSFVIDASGNVSGVIVGPRSKADFDRIVKMALGAKAATKKGIITITTDPNSSSVDKLAAALEHHHHHH	soluble
MTAQPVETIKIDSEAGELGFERLGVLIKEYKPEKVVLGLPKHMNGDEGIRAEASRDYGTKLANEFGLEVAYQDERLTTAQAEKVLIDGGVRRKERKKSIDKLAAVLILQNYLDAHALKL	not soluble
MPITIGNGFLKSEILTNSPRNTKEAWWKVLWEKIKDFFFSTGKAKADRCLHEMLFAERAPTRERLTEIFFELKELACASQRDRFQVHNPHENDATIILRIMDQNEENELLRITQNTDTFSCEVMGNLYFLMKDRPDILKSHPQMTAMIKRRYSEIVDYPLPSTLCLNPAGAPILSVPLDNIEGYLYTELRKGHLDGWKAQEKATYLAAKIQSGIEKTTRILHHANISESTQQNAFLETMAMCGLKQLEIPPPHTHIPIEKMVKEVLLADKTFQAFLVTDPSTSQSMLAEIVEAISDQVFHAIFRIDPQAIQKMAEEQLTTLHVRSEQQSGCLCCFLLEHHHHHH	soluble
MNIRDLEYLVALAEHRHFRRAADSCHVSQPTLSGQIRKLEDELGVMLLERTSRKVLFTQAGMLLVDQARTVLREVKVLKEMASQQGETMSGPLHIGLIPTVGPYLLPHIIPMLHQTFPKLEMYLHEAQTHQLLAQLDSGKLDCVILALVKESEAFIEVPLFDEPMLLAIYEDHPWANRECVPMADLAGEKLLMLEDGHCLRDQAMGFCFEAGADEDTHFRATSLETLRNMVAAGSGITLLPALAVPPERKRDGVVYLPCIKPEPRRTIGLVYRPGSPLRSRYEQLAEAIRARMDGHFDKVLKQAV	soluble
MSYYHHHHHHDYDIPTENLYFQGAMGRADPRNQRVLLDEYSRQRGQITAGGQLLAYSVATDGRFRFLRVYPNPEVYAPVTGFYSLRYSSTALERAEDPILNGSDRRLFGRRLADFFTGRDPRGGNVDTTINPRIQQAGWDAMQQGCYGPCKGAVVALEPSTGKILALVSSPSYDPNLLASHNPEVQAQAWQRLGDNPASPLTNRAISETYPPGSTFKVITTAAALAAGATETEQLTAAPTIPLPGSTAQLENYGGAPCGDEPTVSLREAFVKSCNTAFVQLGIRTGADALRSMARAFGLDSPPRPTPLQVAESTVGPIPDSAALGMTSIGQKDVALTPLANAEIAATIANGGITMRPYLVGSLKGPDLANISTTVGYQQRRAVSPQVAAKLTELMVGAEKVAQQKGAIPGVQIASKTGTAEHGTDPRHTPPHAWYIAFAPAQAPKVAVAVLVENGADRLSATGGALAAPIGRAVIEAALQGEP	soluble
MGSDKIHHHHHHMKFSIDRDALLKPLQLVSGAVERRHNLPILANLLVEVSGHSLKMTGTDLEVELVGEATVHGDVQEGRTTVPAKKLLDIVKSLPEQTEIKVEQQENKWLLRCGRSRFSLATLPAEEYPNVEAFRPDIEFTLKQGTLKSLIDSTQFSMANQDVRYYLNGLLIETEGNVLRAVATDGHRLALSHRMIEASLPEKQVIVPRKGVVELSRLLDAEDQDITLAIGESAIRATTATAVFTSKLVDGRFPDYRRVLPKGGDKIVIASRNQLKQALLRASILSNEKFRGVRILLEDGLLKITANNPEQEEAEEIIDVDYNSTTLEIGFNVSYLLDVLNSLRSDEVRVTLIDSNSSALIENHVEEDSMYVVMPMRL	not soluble
MGSDKIHHHHHHMRILRVAQDIFPDKVGGAPYHIHALSRDQAEMGHDVTVLTVSNDQSKPQTEQRAGYTLVRLSPRIELFGNALFAGTVKYLRNAREYDVVHAHSHLFFSSNLTAAYSRVTDIPLAVTCHGLMSQRVPEWFSRFHLNTVGRFTYNAADVLFSYTAPERERLRDLGVSSDIRVIHNGIDVDRFTPVGATYDRITDATGPAVVFVGRLVEGKRPRDVLKAFQTVQNNIPEAKLFFCGDGPLRDKLEQIVERENMRESIRFLERVPYQEMPAVYRAADLFVLASRTEGFPRSVMESMACATPILSTRLEQTEQVIEQAGRTVPVGDTTALADAMSSMLDDRAALRKLGQAGREIVMREYDWSETVEQTTQTLGTISTSTPSQQQVDSGQAEEQVIPAGSNTEHEQ	not soluble
NAVHFGAGNIGRGFIGKLLADAEVEVTFADVDVPLVDQLSHKQEYKVKVVGTECKIDTVTHVTAVNSASEDVIDRIVKTDLVTTAVGPNVLDIIAKTIAKGIAKRFEAGNDAPLNIIACENMVRGTTHLKGEVYKHLDKSLHAKADELVGFVDSAVDRIVPPAEAANDDPLEVTVESFSEWIVDEQQFKGDIPNIAGMEKTNN	soluble
MPRIAIPDDLTEILTVVEFPLPNAPEIKIEIERLLQATGNSLSGKVTDDLVRSCQGLSMERIRRVLAKAIATHGELQPEDVDLVLEEKRQTIRQTQILDFYPATEQISDIGGLDNLKDWLLRRGGSFSERARQYGLPHPRGLLLEHHHHHH	not soluble
MGSLGPKVFKLDQLPGTIGKKAAKGASVKFSESSTQAVIKATYLQVFGRDVYEGQRLKVQEIKLENGEISVRDFVRALAKSDLFRKLYWTPFYVCKAIEYIHRRLLGRPTYGRQENNKYFDIASKKGLYAVVDAILDSLEYTETFGEDTVPYERYLEHHHHHH	soluble
KELKIILLTDMHVGSLLQKDFVDYIVEEVNQKEVDMVLIGGDLVDESIEKVKSFLLPLNNLKSTHGTFYVPGNHEYYHGIEPILSFLDTLNLTILGNECVHLGGINLCGVYDYFARKRQNFAPDIDKALKKRNESKPTILLAHQPKQIRSLKESHSVDLVLSGHTHAGQIFPFSLLVKLAQTYLHGLYKHSP	not soluble
SDTFSTKSLALQAQKKVLSKMASKAMVAVFVDNTSSEVLDELYQATKEFTRSRKEAQRVVKNLVKVAVKLAVLLRADQLDSNELAQLQRFRGRVRSLAMTALSFHQVDFTFDRRVLATGLLECRDLLHQAIGPHLTAKSHGRINHIFSHFANGDFLAALYSPAEPYRSHLCRICDGLGRMLDEGGI	soluble
MLESNENRIQIMSTIAKIYRAMSRELNRRLGELNLSYLDFLVLRATSDGPKTMAYLANRYFVTQSAITASVDKLEEMGLVVRVRDREDARKILIEITEKGLETFNKGIEIYKKLANEVTGDLSEDEVILVLDKISKILKRIEEISQ	soluble
MIEQPDSKSAKPLYKQLEAALKEAIARGEYKPGQQIPTENELSVRWQVSRVTVRKALDALTRENLLTRVSGKGTFVSGEKFQRSMTGIMSFSELCQSQGRRPGSRTIKSVFESVDDETKALLNMNDGEKAVVIERIRYADDVAVSLETVHLPPRFAFLLDEDLNNHSLYECLREKYHLWFTHSRKMIELVYASFEVAHYLGVNEGYPLILIKSEMIDNKGELSCVSQQLIVGDKIRFTV	not soluble
MGSSHHHHHHSSGLVPRGSHMLEADPLLAQLKQQLHSQTPRAEGVVKATEKGFGFLEVDAQKSYFIPPPQMKKVMHGDRIIAVIHSEKERESAEPEELVEPFLTRFVGKVQGKNDRLAIVPDHPLLKDAIPCRAARGLNHEFKEGDWAVAEMRRHPLKGDRSFYAELTQYITFGDDHFVPWWVTLARHNLEKEAPDGVATEMLDEGLVREDLTALDFVTIDSASTEDMNDALFAKALPDDKLQLIVAIADPTAWIAEGSKLDKAAKIRAFTNYLPGFNIPMLPRELSDDLCSLRANEVRPVLACRMTLSADGTIEDNIEFFAATIESKAKLVYDQVSDWLENTGDWQPESEAIAEQVRLLAQICQRRGEWRHNHALVFKDRPDYRFILGEKGEVLDIVAEPRRIANRIVEEAMIAANICAARVLRDKLGFGIYNVHMGFDPANADALAALLKTHGLHVDAEEVLTLDGFCKLRRELDAQPTGFLDSRIRRFQSFAEISTEPGPHFGLGLEAYATWTSPIRKYGDMINHRLLKAVIKGETATRPQDEITVQMAERRRLNRMAERDVGDWLYARFLKDKAGTDTRFAAEIVDISRGGMRVRLVDNGAIAFIPAPFLHAVRDELVCSQENGTVQIKGETVYKVTDVIDVTIAEVRMETRSIIARPVA	soluble
MSLGIPLSQLIVESPKPLSSGITGLDEILNLGFQARSIYEIFGPPGIGKTNFGIQLVCNSLEGIQQSEINDDKILWIETFQEMPINILRERFQKFKIVEENVKRVRITKFGQLLYFFQNLFKLSQSVRYKLVIIDGFSQLVCDHLCTLSKRGGGMIDKTIHELKCRHLILIFTVMTKYTHSTGSTIIVLNDCMNTAFQSNEFESLEEYYEILDDGSNFFVNSNNERRKNNVHILKSALVANIAMGSKDSTWEVFLRDRIGLFRDWNEQVDETVFVKSKRVKASSSQSNEGCTTIKEMRINKRNFENLRIAIVFNLHGEDRKREGRNLKRSRSSDDRNYIVKFDFDKATGQLRDIIDLKPDTANIASFPTLSTSSSSCSQVFNNIDSNDNPLPNAEGKEEIIYDSEG	not soluble
